Target: the molecule itself
Assay: rotary-shadowing electron microscopy; chaperonin (50 µg/mL) directly immobilised on plasma-cleaned coverslip, washed with HKM buffer [25 mM HEPES-KOH (pH 7.4), 100 mM KCl, 5 mM MgCl2] and 50% glycerol, shadowed at 5° with platinum and carbon; coverslip without chaperonin as negative control

B1: αD263C/Q271C/C366S-His, the double-cysteine mutant of Thermococcus sp. strain KS-1 (T. KS-1) α chaperonin with internal hexahistidine tags (complex, UniProt P61112 1-548, looked up)
chain: MAQLSGQPVVILPEGTQRYVGRDAQRLNILAARIIAETVRTTLGPKGMDKMLVDSLGDIVVTNDGATILDKIDLQHPAAKMMVEVAKTQDKEAGDGTTTAVVIAGELLRKAEELLDQNIHPSIIIKGYALAAEKAQEILDEIAIRVDPDDEETLLKIAATSITGKNAESHKELLAKLAVEAVKQVAEKKDGKYVVDLDNIKFEKKAGEGVEESELVRGVVIDKEVVHPRMPKRVENAKIALINEALEVKKTETDAKINITSPCQLMSFLECEEKMLKDMVDHIAQTGANVVFVQKGIDDLAQHYLAKYGIMAVRRVKKSDMEKLAKATGAKIVTNVKDLTPEDLGYAEVVEERKLAGENMIFVEGSKNPKAVTILIRGGTEHVIDEVERALEDAVKVVKDVMEDGAVLPAGGAPEIELAIRLDEYAKQVGGKEALAIENFADALKIIPKTLAENAGLDTVEMLVKVISEHKNRGLGIGIDVFEGKPADMLEKGIIEPLRVKKQAIKSASEAAIMILRIDDVIAAKATKPEGGQGGGMPGGMGGMDMGM
notes: Group II chaperonin (thermosome) α subunit of Thermococcus sp. strain KS-1, amino acids 1-548, the entire α subunit amplified from plasmid pK1Eα2; hexa-histidine inserted between Val146 and Asp147; Homo-oligomeric double ring; The results call the sample of the electron microscopy BSR-CPN (cysteines 263 and 271 cross-linked by BSR, about 0.3 dye per hexadecamer); the methods name the unlabelled …
- binding result: binds
